Source: US20220073643A1 (NANJING GENSCRIPT BIOTECH, published 2022)
Several values for one entry are separate records, joined by “and”; a condition that tells them apart may be missing. Identical values can stand only once.

B1: 200A4H8 (antibody, V domains shown)
VH: QVQLKQSGPGLVQPSQSLSITCTVSGFSLTRYGVHWVRQSPGKGLEWLGVIWSGGNTDYNAAFISRLNIRKDNSKSQVFFKMNSLKPNDTAIYYCARAAYFGNSFDYWGQGTTLTVSS
VL: DIVMTQSPSSLPVTAGEKVTMSCKSSQSLLNSGNQKNYLTWYQQKPGQPPKLLIYWASTRDSGVPDRFTGSGSGTDFTLTISSVQAEDLAVYYCQNNYIYPLTFGAGTKLELK
notes: mouse hybridoma mAb
B2: 207F8G5 (antibody, V domains shown)
VH: QAYLQQSGAELVRSGASVKMSCKASGFTFTSYNIHWVKQTPGQGLEWIGYISPGNGGSNYNLKFKDKATLTSATSSSTAYMQISSLTSEDSAVYFCATGRGFAYWGQGTLVTVSA
VL: DIVMTQSPSSLTVTPGEKVTMSCKSSQSLFNSGNQKNYLIWYQQKPGQPPKLLIYRASTRDSGVPDRFTGSGSGTDFTLTISNVQAEDLAIYYCQNDYSYPLTFGAGTKLELK
notes: mouse hybridoma mAb
B3: 232C5E3 (antibody, V domains shown)
VH: QAYLQQSGAELVRSGASVKMSCKASGYTFTSHNIHWIKQTPGKGLEWIGYIYPGNGGTNYNQKFKAKATLTADTSSSTAYMQISSLTSEDSAVYFCARDYYGNSFAYWGQGTLVTVSA
VL: DIMMTQSPSSLTETAGEKVSMSCKSSQSLLNSGNQKNYLTWYQQKPGQPPKLLIYWASTRESGVPDRFSGSGSGTDFTLTISSVQAEDLAVYYCQNGYRFPFTFGAGTKLELK
notes: mouse hybridoma mAb
B4: 181C7B2 (antibody, V domains shown)
VH: QVQLKQSGPGLVQPSQSLSITCTVSGFSLTYYGVHWVRQSPGKGLEWLGVIWRGGNTDYNAAFISRLSINKDNSKSQVFFKMNSLQPNDTAIYYCARAAYYGNCFDYWGQGTTLTVSS
VL: DIVMTQSPSSLTVTAGEKVTMSCKSSQSLLNSGNQKNYLTWYQQKPGQPPKLLIYWASTRESGVPDRFTGSGSGTDFTLTISSVQAEDLAVYYCQNNYIYPLTFGAGTKLELK
notes: mouse hybridoma mAb
B5: 222B6G5 (antibody, V domains shown)
VH: QTYLQQSGAELVRSGASVKMSCKASGYTFTSYNIHWVKQTPGQGLEWIGYISPGNGGTYYNLKFKDKATLTTATSSSTAYMQISSLTSEDSAVYFCATGRGFAYWGQGTLVTVSA
VL: DIVMTQSPSSLTVTPGEKVTMSCKSSQSLFNSGNQKNYLIWYQQKPGQPPKLLIYRASTRDSGVPDRFTGSGSGTDFTLTISNVQAEDLAVYYCQNDYSYPLTFGAGTKLELK
notes: mouse hybridoma mAb; also called 222B6G5-2
B6: 217D9G2 (antibody, V domains shown)
VH: QAYLQQSGAELVRSGASVKMSCKASGFTFTSYNIHWVKQTPGQGLEWIGYISPGNGGSNYNLNFKDKATLTAATSSTTAYMQISSLTSEDSAVYFCATGRGFAYWGQGTLVTVSA
VL: DIVMTQSPSSLTVTPGEKVTMSCRSSQSLFNSGNQKNYLIWYQQKPGQPPKLLIYRASTRDSGVPDRFTGSGSGTDFTLTISNVQAEDLAVYYCQNDYSYPLTFGAGTKLELK
notes: mouse hybridoma mAb
B7: 248E6A7 (antibody, V domains shown)
VH: QAYLQQSGAELVRSGASVKMSCRASGYTFTSHNMHWVKQTPGQGLEWIGYIYPGNGNTYYNQKFKVKATLTADTSSNTAYMQINSLTSEDSAVYFCVRDYYGNSFVYWGQGTLVTVSA
VL: DVVMTQSPSSLTEKTGEKVTMTCKSSQSLLNSGNQKNYLAWYQQKPGQPPKLLIYWASTRESGVPDRFIGSGSGTDFTLTISSLQTEDLAVYYCQNNYMYPFTFGAGTKLELK
B8: 280F3B6 (antibody, V domains shown)
VH: QAYLQQSGAELVRSGASVKMSCKASGYTFTSHNMHWVKQTPGQGLEWIGYIYPGNGGTNYNQKFKGKATLTADTSSSTAYMQISSLTSEDSAVYFCTRDYYGNSFAYWGQGTLVTVSA
VL: DIVMTQSPSSLTEKAGERVSMSCKSSQSLFNSGNQKNYLTWYQQKPGQPPKLLIYWASTRESGVPDRFTGSGSGTDFTLTISSVQAEDLAVYYCQNDYWYPFTFGAGTKLELK
notes: mouse hybridoma mAb
B9: 243B4F2 (antibody, V domains shown)
VH: QAYLQQSGAELVRSGASVKMSCKASGYTFTSHNLHWVKQTPGQGLEWIGYIYPGNGNTNYNQKFKGKATLTADTSSSTAYMQISSLTSEDSAVYFCTRDYYGNSFAYWGQGTLVTVSA
VL: DIVMTQSPSSLTEKAGERVSMSCKSSQSLFNSGNQKNYLTWYQQKPGQPPKLLIYWASTRESGVPDRFTGSGSGTDFTLTISSVQAEDLAVYYCQNNYWFPFTFGAGTKLELK
notes: mouse hybridoma mAb
B10: 231H4G11 (antibody, V domains shown)
VH: QAYLQQSGAELVRSGASVKMSCKASGYTFTSHNIHWVKQTPGQGLEWIGYISPGNGYTNYNQKFRGKATLTADTSSSTAYMQISSLTSEDSAVYFCTRDYYGNSFAYWGQGTLVTVSA
VL: DIVMTQSPSSLTEKAGERVSMSCKSSQSLFNSGSQKNYLTWYQQKPGQPPKLLIYWASTRESGVPDRFSGSGSGTDFTLTISSVQAEDLAVYYCQNNYWFPFTFGAGTKLELK
notes: mouse hybridoma mAb
B11: 243B4F7 (antibody, V domains shown)
VH: QAYLQQSGAELVRSGASVKMSCKASGYTFTSHNLHWVKQTPGQGLEWIGYIYPGNGNTNYNQKFKGKATLTADTSSSTAYMQISSLTSEDSAVYFCTRDYYGNSFAYWGQGTLVTVSA
VL: DIVMTQSPSSLTEKAGERVSMSCKSSQSLFNSGNQKNYLTWYQQKPGQPPKLLIYWASTRESGVPDRFTGSGSGTDFTLTISSVQAEDLAVYYCQNNYWFPFTFGAGTKLELK
notes: mouse hybridoma mAb
B12: 239H12G9 (antibody, V domains shown)
VH: QAYLQQSGAELVRSGASVKMSCKASGYTFTSHNIHWVKQTPGQGLEWIGYIYPGNGAPNYNQKFRGKATLTADTSSSTAYMQISSLTSEDSAVYFCARDYYGNSFVYWGQGTLVTVSA
VL: DIVMTQSPSSLTEKAGEKVSMSCKSSQSLLNSGNQKNYLTWYQQKPGQPPKLLIYWASTRESGVPDRFTGSGSGTDFTLTISSVQAEDLAVYYCQNDYRYPFTFGAGTKLELK
notes: mouse hybridoma mAb
B13: 234C9G5 (antibody, V domains shown)
VH: QAYLQQSGAELVRSGASVKMSCKASGYAFTSHNMHWVKQTPGQGLEWIGYISPGNGYTNYNQKFRGKATLTADTSSSTAYMQIGSLTSEDSAVYFCTRDYYGNSFAYWGQGTLVTVSA
VL: DIVMTQSPSSLTEKAGERVSMSCKSSQSLFNSGNQKNYLTWYQQKPGQPPKLLIYWASTRESGVPDRFTGSGSGTDFTLTISSVQAEDLAVYYCQNNYWFPFTFGAGTKLELK
notes: mouse hybridoma mAb
B14: 243F6D2 (antibody, V domains shown)
VH: QAYLQQSGAELVRSGASVKMSCRASGYTFTSHNMHWVKQTPGQGLEWIGYIYPGNGGTYYNQKFKGKATLTADTSSSTAYMQISSLTSEDSAVYFCARDYYGNSFVYWGQGTLVTVSA
VL: DVVMTQSPSSLTEKTGEKVSMSCKSSQSLLNSGNQKNYLTWYQQKPGQPPKLLIYWASTRESGVPDRFTGSGSGTDFTLTISSLQTEDLAVYYCQNNYRYPFTFGAGTKLELK
notes: mouse hybridoma mAb
B15: 234E1F12 (antibody, V domains shown)
VH: QAYLQQSGAELVRSGASVKMSCKASGYTFTSHNMHWVKQTPRQGLEWIGYIYPGNGDTNYNQKFKGKATLTADTSSSTAYMQISSLTSEDSAVYFCTRDYYGNSFAYWGQGTLVTVSA
VL: DIVMTQSPSSLTEKAGERVSMSCKSSQSLFNSGNQKNYLTWYQQKPGQPPKLLIYWASTRESGVPDRFTGSGSGTDFTLTISSVQAEDLAVYYCQNAYWYPFTFGAGTKLELK
notes: mouse hybridoma mAb
B16: 235A10C9 (antibody, V domains shown)
VH: QAYLQQSGAELVRSGASVKMSCKASGYTFASHNMHWVKQTPGQGLEWIGYIYPGNSGTKYNQKFTGKATLTADTSSSTAYMQITSLTSEDSAVYFCARDYYGNSFAYWGQGTLVTVSA
VL: DIVMTQSPSSLTEKAGEKVSMRCKSSQSLLNSGNQKNYLTWYQQKPGQPPKLLIYWASTRESGVPDRFTGSGSGTDFTLTISSVQADDLAVYYCQNDYMFPFTFGAGTKLELK
notes: mouse hybridoma mAb
B17: 232D7C8 (antibody, V domains shown)
VH: QAYLQQSGAELVRSGASVKMSCKASGYTFTSHNMHWVKQTPGQGLEWIGYIYPGNGGTNYNQKFKGKATLTADTSSSTAYMQISSLTSEDSAVYFCARDYFGNSFAYWGQGTLVTVSA
VL: DILMTQSPSSLTATAGEKVSMSCKSSQSLFNSGNQRNYLTWYQQRPGQPPKLLIYWASTRESGVPDRFTGSGSGTDFTLTISSVQAEDLAVYYCQNDYRYPFTFGAGTKLELK
notes: mouse hybridoma mAb
B18: 240D6F5 (antibody, V domains shown)
VH: QAYLQQSGAELVRSGASVKMSCKASGYTFTSHNMHWVKQTPGQGLEWIGYIYPGNGGTNYNQKFKGKATLTADPSSSTAYMQINSLTSEDSAVYFCTRDYYGNSFAYWGQGTLVTVSA
VL: DIVMTQSPSSLTEKAGERVSMSCKSSQSLFNSGNQKNYLTWYQQKPGQPPKLLIYWASTRESGVPDRFTGSGSGTDFTLTISSVQAEDLAVYYCQNDYRYPFTFGAGTKLELK
notes: mouse hybridoma mAb
B19: 233D5E5 (antibody, V domains shown)
VH: QAYLQQSGAELVRSGASVKMSCKASGYTFTSHNMHWVKQTPRQGLEWIGYIYPGNGDTNYNQKFKGKATLTADTSSSTAYMQISSLTSEDSAVYFCTRDYYGNSFAYWGQGTLVTVSA
VL: DIVMTQSPSSLTEKAGERVSMSCKSSQSLFNSGNQKNYLTWYQQKPGQPPKLLIYWASTRESGVPDRFTGSGSGTDFTLTISSVQAEDLAVYYCQNAYWYPFTFGAGTKLELK
notes: mouse hybridoma mAb
B20: 242H12D6 (antibody, V domains shown)
VH: QAYLQQSGAELVRSGASVKMSCKASGYTFTSHNMHWVKQTPGQGLEWIGYIYPGNGGTNYNQKFKGKATLTADTSSSTAYMQINSLTSEDSAVYFCTRDYYGNSFAYWGQGTLVTVSA
VL: DIVMTQSPSSLTEKAGERVSMSCKSSQSLFNSGNQKNYLTWYQQKPGQPPKLLIYWASTRESGVPDRFTGSGSGTDFTLTISSVQAEDLAVYYCQNDYRYPFTFGAGTKLELK
notes: mouse hybridoma mAb
B21: 201F4H6 (antibody, V domains shown)
VH: QVQLKESGPGLVAPSQSLSITCTVSGFSLTSYGVSWVRQPPGKGLECLGVIWAGGNTNYNSALMSRLSISKDKSKSQVFLKMNSLQTDDTAMYYCARVYYGNAMDYWGQGTSVTVSS
VL: DIVMTQSPSSLTVTAGEKVTMSCKSSQSLLNSGNQKSYLTWYQQRPGQPPKLLIYWASTRESGVPDRFTGSGSGTDFTLTISSVQAEDLAVYFCQNVYFFPFTFGSGTKLETK
notes: mouse hybridoma mAb

Experiments:
human Claudin18.2 [1] = biological target: T1, human Claudin18.2 (human); assay: cell ELISA, Claudin18.2-expressing HEK293T cells
T1 construct: also called CLDN18.2
Experimental: To determine protein binding EC₅₀ by Cell ELISA, 96-well U-bottom microplates were pre-blocked with blocking buffer (5% MPBS, 1×PBS with 5% skim milk) overnight at 4° C. On the next day, the Claudin18.2-expressing HEK293T stable cell line was suspended at 1.5×10⁶ cells/ml in blocking buffer, added to the plate in 100 μl/well and incubated at room temperature for 1 hour.
Raw data were plotted with GraphPad Prism v6.02 software with four parameters, best-fit value program to analyze the EC₅₀.

human Claudin18.2 [2] = biological target: human Claudin18.2 (human); assay: cell-based or functional assay

Binder | EC50 (human Claudin18.2 [1]) | further results
B1 | 1.01 nM | 
B2 | 0.822 nM | 
B3 | 0.651 nM | 
B4 | 1.07 nM | 
B5 | 1.13 nM and 1.38 nM | 
B6 | 0.908 nM | 
B7 |  | CDC % Relative activity (human Claudin18.2 [2]): 161%; CDC EC50 (human Claudin18.2 [2]): 0.876 µg/mL
B8 | 0.582 nM | 
B9 | 0.684 nM | 
B10 | 1.01 nM | 
B11 | ~0.411 nM | 
B12 | 0.732 nM | 
B13 | 0.562 nM | 
B14 | 0.96 nM | 
B15 | 0.57 nM | 
B16 | 0.63 nM | 
B17 | 0.738 nM | 
B18 | 1.77 nM | 
B19 | 0.803 nM | 
B20 | 0.744 nM | 
B21 | 0.283 nM | 
